Measured values published in PMC7182444 (Science (New York, N.Y.), 2020).

Columns and labels:
[1] = target: Orb2 filaments purified from adult heads (Drosophila melanogaster (endogenous in …, UniProt Q9VSR3 1-704)); assay: seeded aggregation
[2] = target: the molecule itself; assay: SDS-PAGE and SDD-AGE with western blotting

B1: Orb2 (Drosophila CPEB) purified from adult heads (natural protein)
chain: MDSLKLPKANSATSSASGSNSNLSGSTSASASAATSPTSSGTAVGGILSGAPKSPPGLGSSTPISVRFNANEESLDDILQSFHHSKHSPSGGASGGGDASPTSNLLGMKNNGLGLVVGNCDSLSSSPSQPQMHAGSASLFGNDEVSLRNNFMQAGGFFNRKSCGGLPNLNLNKPPQLHQQQHQQQHQQHQQHQQQQQLHQHQQQLSPNLSALHHHHQQQQQLRESGGSHSPSSPGGGGGGSPYNGSQAGCSSGGISPIPPQMGVSPKYRRSISFPIKGNSPTAIYGNMHMDGMGSGHMNIPTLSIGNGGGGGSTGMVSAGATGGGDAPYLGNSYGNMMTSNGQMHHGGGLDNSLCDYMRNMSLGGNGGGDGSNSMSLMQDRMRVMGGPKHLSEADAMAIAASGNDPSVYLNALKMGSPSRLSPHSPHSPIQGGNGGNVGDGTARFSRKVFVGGLPPDIDEDEITTSFRRFGPLVVDWPHKAESKSYFPPKGYAFLLFQDESSVQQLIDSCITDEDKLYLCVSSPTIKDKAVQIRPWRLADADYVLDATMSLDPRKTVFVGGVPRPLKAFELAMIMDRLYGGVCYAGIDTDPELKYPKGAGRVAFSNQQSYIAAISARFVQLQHGDIDKRVEVKPYVLDDQMCDECEGQRCGGKFAPFFCANVTCLQYYCEHCWAVIHSRPGREYHKPLVKEGADRPRAVPFRWC
binding result [1]: binds
binding result [2]: binds
